The text below walks through data of US20100150941A1 (DSO NATIONAL LABORATORIES, published 2010).

Assay [1] has as its target T1, hemagglutinin of A/Vietnam/1203/04 (H5N1) on virus (influenza A virus H5N1, …, UniProt Q80A26 6-557). In words: inferred from HI and virus neutralization assays.
Assay [2] deals with T1, hemagglutinin of A/Vietnam/1203/04 …. The assay can be described thus: HI assay.

B1: VN04-3 (antibody, V domains shown)
VH: QVQLQESGPDLVKPGASVMISCKASGYSFTYYYMHWVKQSHGKTLEWIGRIYPYNGDTNYNRRFKDKAILTVDESSSTAYMELRSLTSEDSAVYFCARDANYEGDWYFDVWGQGTTVTVSS
VL: DIQMTQSPSSFSVSLGDRVTITCKASEDIYNRVAWYQQKPGNAPRLLMSDATSLGAGVPSRFSGSGSGKDHTLSITSLQTEDVATYYCQQYWNTRTFGGGTKLEIKR
Regarding B1, the binding result in assay [1] is on record as “binds”.

B2: VN04-3-huG1 (antibody, V domains shown)
VH: QVQLQESGPDLVKPGASVMISCKASGYSFTYYYMHWVKQSHGKTLEWIGRIYPYNGDTNYNRRFKDKAILTVDESSSTAYMELRSLTSEDSAVYFCARDANYEGDWYFDVWGQGTTVTVSS
VL: DIQMTQSPSSFSVSLGDRVTITCKASEDIYNRVAWYQQKPGNAPRLLMSDATSLGAGVPSRFSGSGSGKDHTLSITSLQTEDVATYYCQQYWNTRTFGGGTKLEIKR
For the molecule B2, the binding result in assay [2] is given as “binds”.
